Reference: patent US20100233157A1 (published 2010)

Columns and labels:
[1] = target: T1, Recombinant human soluble Fas receptor (PeproTech, Cat. 310-20) (human, UniProt P25445 17-173); experiment: SPR (BIAcore 3000), soluble Fas immobilized on CM5 chip, antibody as analyte, bivalent analyte fit
T1 construct: Bought soluble form; also called sFas; rFas
T1 sequence (looked up): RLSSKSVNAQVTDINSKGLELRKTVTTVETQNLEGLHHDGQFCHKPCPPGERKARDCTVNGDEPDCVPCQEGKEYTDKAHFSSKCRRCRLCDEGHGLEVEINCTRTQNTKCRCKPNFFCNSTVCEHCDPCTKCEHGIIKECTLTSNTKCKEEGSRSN
Experimental: The interaction of F45D9 mAb's (γ-γ1 and γ4-isotypes) with immobilized soluble human Fas receptor was monitored by surface plasmon resonance detection using a BIAcore 3000 instrument. Recombinant human soluble Fas receptor (srFas) (PeproTech, cat. 310-20) was immobilized (concentration of 5 ug/ml in immobilization buffer: 10 mM sodium acetate pH 5.0) onto a CM5 sensor chip (BIAcore BR-1001-14) using an Amine Coupling kit (BIAcore, Cat. BR-1000-50), at a surface density of […] resonance units (RU). Deactivation of excess reactive groups on the chip surface was done by adding 1.0 M ethalonamine hydrochloride (pH 8.5). F45D9 mAb's-γ1 mAb were passed over the surface in equilibrium binding experiments at concentrations ranging from […] at a flow rate of 30 ul/min. Dilutions and binding experiments were conducted in 0.01 M HEPES (pH 7.4), 0.15 M NaCl, 3 mM EDTA, and 0.005% P-20 (BIAcore surfactant, BR-1001-88). Between each cycle 100 mM HCl was used to regenerate the surfaces at a flow rate 30 ul/min. KA and KD of F45D9 mAb's were-γ1 mAb was determined by fitting bivalentusing BIAcore models (BIAevaluation).

[2] = target: T2, Human Fas (CD95) on the cell surface (human, UniProt P25445 26-335); experiment: flow cytometry on Jurkat cells, FITC anti-human IgG secondary, geometric MFI after background subtraction
T2 construct: also called APO-1; TNR6_Human
T2 sequence: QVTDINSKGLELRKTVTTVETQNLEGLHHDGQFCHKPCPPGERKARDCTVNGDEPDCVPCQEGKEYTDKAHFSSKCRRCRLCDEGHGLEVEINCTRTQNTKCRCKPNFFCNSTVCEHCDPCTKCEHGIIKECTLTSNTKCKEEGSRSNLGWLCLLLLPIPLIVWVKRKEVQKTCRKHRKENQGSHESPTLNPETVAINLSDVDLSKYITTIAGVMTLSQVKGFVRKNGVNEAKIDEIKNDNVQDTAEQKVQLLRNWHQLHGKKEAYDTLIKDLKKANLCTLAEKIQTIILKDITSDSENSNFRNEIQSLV
Experimental: Binding of F45D9-γ1 and F45D9-γ4 to the surface of Fas expressing Jurkat and SKW6.4 cells (from ATCC, Jurkat, clone E6-1, ATCC-TIB-152, Human T Leukemia cell line); SKW6.4 cells, ATCC-TIB-215, Human B lymphoblastoid cell line) was explored by immunofluorescence staining and flow cytometry analysis. Cells were cultured in RPMI 1640 medium (GIBCO, Cat. 3105205) supplemented with 2 mM glutamax (GIBCO), 100 UI/mL penicillin, 100 μg/mL streptomycin (Sigma) and 5-10% fetal bovine serum (GIBCO), at 37° C. and 5% CO₂. After washing in PBS Jurkat or SKW6.4 cells (0.2×10⁶ cells/well) were incubated in staining buffer (PBS/1% FBS) containing F45D9-γ1, F45D9-γ4 or human IgG control antibodies (Human IgG1, kappa, Sigma, Cat. I5154 or Human IgG4, kappa, Sigma, Cat. I4639) in a 96-well U-bottom plate for 30 min on ice, in a 100 ul/well volume. Cells were then washed once with staining buffer, and further incubated for 30 min on ice with 1:30 dilution of FITC-conjugated rabbit F(ab′)₂ anti-human IgG (DakoCytomation Cat. F0056). After washing and fixing with 1% formaldehyde in PBS cells were analyzed in a FACScan (Becton Dickinson, Mountain View, Calif.). The reactivity of F45D9-γ1 and F45D9-γ4 to the surface of Jurkat cells was quantified and Geometric Mean Fluorescence Intensity (MFI) after background subtraction (FIG. 1A) and histograms (FIG. 1B) are shown. […]

B1: F45D9-γ1 mAb (recombinant human mAb T17/B2-1G4, gamma-1 isotype) (antibody, V domains shown)
VH: QVQLQQWGAGLLKPSETLSLICAVYGGSFSTYYWTWIRQPPGKGLEWIGEINHRGTTNYSPSLKSRVTISVDTSKNHISLNLTSVTAADTALYYCARGLLWIGEGDYGLDVWGQGTTVTVSS
VL: DIQMTQSPSSLSASVGDRVTITCRASQGIRRWLAWYQQKPEKAPKSLIYAASSLQSGVPSRFSGSGSGTDFTLTISSLQPEDFATYYCQQYNSYPYTFGQGTKLEIKR
notes: Whole human IgG1 (γ1fa allotype) with human kappa light chain, made in CHO DG44 cells; also called IgG1; T17/L18/B2-1G4
For B1, the Kd [1] was 0.0411 nM and the “EC50 (read off the curve)” value [2] was ~0.5 µg/mL.
